T1: CHO/mCD47-GFP (mouse, UniProt Q61735)
T1 construct: on the cell surface; also called mouse CD47 expressed on CHO cells; CHO cell expressing mouse CD47
T1 sequence (receptor, looked up): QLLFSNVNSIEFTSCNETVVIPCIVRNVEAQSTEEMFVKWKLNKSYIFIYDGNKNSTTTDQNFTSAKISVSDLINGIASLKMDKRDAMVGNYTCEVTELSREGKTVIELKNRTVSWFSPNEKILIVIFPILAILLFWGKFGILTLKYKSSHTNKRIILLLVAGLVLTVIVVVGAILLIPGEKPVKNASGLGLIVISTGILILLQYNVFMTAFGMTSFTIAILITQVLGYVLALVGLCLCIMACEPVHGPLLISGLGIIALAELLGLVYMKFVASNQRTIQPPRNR


Key:
CHO/mCD47-GFP = target: T1, CHO/mCD47-GFP; experiment: flow cytometry on CHO cells expressing mouse CD47-GFP, binding percentage
[1] = target: T2, biotin labelled polyhistidine tagged CD47 protein (Novoprotein, Cat#321) (human, UniProt Q08722 19-139, biotin labelled (site not stated)); experiment: flow cytometry blocking assay: antibody mixed with biotinylated human CD47 protein; blocked ligand SIRPα on cells; binding percentage
T2 construct: Bought protein; also called biotinylated CD47; biotinylated human CD47 protein; not shown: polyhistidine tag

[2] = target: T3, human CD47 expressed on cells (CD47 expressing CHO cells, Jurkat, HL60, DLD1, Raji) (human, UniProt Q08722 19-292); experiment: flow cytometry on DLD1 cells, IgG, frequency
T3 construct: also called CHO-CD47; IAP

[3] = target: T4, CD47 protein (construct not stated; SPR antigen, CD47 coated ELISA plates) (Homo sapiens (Human), UniProt Q08722 19-139, limits assumed); experiment: SPR (Biacore T100), affinity (nM) as grade; legend +: >10 nM and <40 nM
T4 construct: also called the antigen

[4] = target: T3, human CD47 expressed on cells (CD47 …); experiment: EC50 (nM) as grade, binding on CHO-CD47 cells; legend ++++: <0.05 nM
[5] = target: T5, human CD47-Fc protein (Novoprotein, Cat#CG18) (human, UniProt Q08722 19-139); experiment: IC50 (nM) as grade, blocking of soluble CD47 binding to SIRPα-expressing CHO cells; legend ++: >1 nM and <10 nM
T5 construct: Bought protein; also called CD47-hFc; hCD47-hFc fusion protein; not shown: human IgG Fc of the bought fusion protein

[6] = target: T3, human CD47 expressed on cells (CD47 …); experiment: EC50 (nM) as grade, binding on Jurkat cells; legend ++: >1 nM and <10 nM
[7] = target: T3, human CD47 expressed on cells (CD47 …); experiment: flow cytometry on CD47 expressing CHO cells, MFI (FL-4)
[8] = target: T3, human CD47 expressed on cells (CD47 …); experiment: flow cytometry on human red blood cells, donor 2, MFI; EC50 (nM) table beside the legend
[9] = target: T5, human CD47-Fc protein (Novoprotein, …); experiment: IC50 (nM) as grade, neutralizing ELISA, CD47-hFc on SIRPα coated plate; legend ++: >15 nM and <20 nM
[10] = target: T3, human CD47 expressed on cells (CD47 …); experiment: EC50 (nM) as grade, binding on Jurkat cells; legend ++++: <0.05 nM
[11] = target: T5, human CD47-Fc protein (Novoprotein, …); experiment: IC50 (nM) as grade, neutralizing ELISA, CD47-hFc on SIRPα coated plate; legend +++: >8 nM and <15 nM
[12] = target: T3, human CD47 expressed on cells (CD47 …); experiment: EC50 (nM) as grade, binding on Jurkat cells; legend +++: >0.05 nM and <1 nM
[13] = target: T5, human CD47-Fc protein (Novoprotein, …); experiment: IC50 (nM) as grade, blocking of soluble CD47 binding to SIRPα-expressing CHO cells; legend +++: >0.05 nM and <1 nM
[14] = target: T3, human CD47 expressed on cells (CD47 …); experiment: EC50 (nM) as grade, binding on CHO-CD47 cells; legend +++: >0.05 nM and <1 nM
[15] = target: T4, CD47 protein (construct not stated; SPR …); experiment: SPR (Biacore T100), affinity (nM) as grade; legend -: >40 nM

binding result (CHO/mCD47-GFP)	IC50 (read off the curve) [1]	EC50 (read off the curve) [2]	Affinity by SPR [3]	EC50 [4]	IC50 [5]	EC50 [6]	EC50 (read off the curve) [7]	EC50 [8]	IC50 [9]	EC50 [10]	IC50 [11]	EC50 [12]	IC50 [13]	EC50 [14]	Kd [15]	Binder
no binding (tested: about 0.4 ug/ml)	~8 nM	~2 nM	10 to 40 nM	< 0.05 nM	1 to 10 nM	1 to 10 nM	~2 nM									Positive 2 (benchmark analogue antibody) (antibody, V domains shown, also called Pos) VH: QVQLQQPGAELVKPGASVMMSCKASGYTFTNYNMHWVKQTPGQGLEWIGTIYPGNDDTSYNQKFKDKATLTADKSSSAAYMQLSSLTSEDSAVYYCARGGYRAMDYWGQTSVTVSS VL: DVLMTQTPLSLPVSLGDQASISCRSSQSIVYSNGNTYLGWYLQKPGQSPKLLIYKVSNRFSGVPDRFSGSGSGTDFTLKISRVEAEDLGVYHCFQGSHVPYTFGGGTKVEIK
no binding (tested: about 0.4 ug/ml)			10 to 40 nM	< 0.05 nM	1 to 10 nM			1.47 nM	15 to 20 nM	< 0.05 nM						ABU3 (antibody, V domains shown, Murine hybridoma monoclonal antibody) VH: EVQLQQSGAELVKPGASVKLSCTASGFTIKDTYMHWVKQRPEQGLEWIGRIDPAKDNTKYDPKFQGKATITLDTSSNIAYLQLSSLTSEDTAVYFCARGHYGSSYVVYWGQGTLVTVSA VL: NILMTQSPKSMSMSVGERVTLSCKASENVGTYVSWYQQKPDQSPKLLIYGASNRYTGVPDRFTGSGSATDFTLTISSVQAEDLADYHCGQSYSYPLTFGAGTKLELK
no binding (tested: about 0.4 ug/ml)			10 to 40 nM	< 0.05 nM				0.34 nM			8 to 15 nM	0.05 to 1 nM	0.05 to 1 nM			ABU4 (antibody, V domains shown, Murine hybridoma monoclonal antibody) VH: QVQLQQSGPQLVRPGASVKISCKTSGYSFTNYWMQWVKQRPGQGLEWIGMIDPSDSESRLNQKFKDKATLTVDKSSSTAYMQLSSPTFEDSAVYYCARRGSPMITSFAYWGQGTLVTVSA VL: DVQITQSPSFLAASPGETITINCRASKNIGKYLAWFQEKPGKTNKLLIYSGSTLQSGIPSRFSGSGSGTDFTLTISSLEPEDFAIYYCQQHNEYPYTFGGGTKLEIK
no binding (tested: about 0.4 ug/ml)					1 to 10 nM			0.12 nM				0.05 to 1 nM		0.05 to 1 nM	> 40 nM	ABU1 (antibody, V domains shown, Murine hybridoma monoclonal antibody) VH: EVKLVESGGGLVQPGGSRKLSCAASGFTFSDYGMAWVRQAPGKGPECVAFISNLAKRIYYVDTVTGRFTISRENAKNTLYLEMSSLRSEDTAMYYCTRAYRYALDYWGQGTTLTVSS VL: QIVLTQSPAIMSASPGEKVTMTCSASSSVSYMNWYQQKSGTSPKRWIYDTSKLASGVPARFSGSGSGTSYSLTISSMEAEDAATYYCQQWNSNPPTFGTGTKLELK
